Biological target: T1, CepR (His-tagged response regulator) (Streptomyces clavuligerus F613-1) (UniProt E2PWN2)
T1 sequence: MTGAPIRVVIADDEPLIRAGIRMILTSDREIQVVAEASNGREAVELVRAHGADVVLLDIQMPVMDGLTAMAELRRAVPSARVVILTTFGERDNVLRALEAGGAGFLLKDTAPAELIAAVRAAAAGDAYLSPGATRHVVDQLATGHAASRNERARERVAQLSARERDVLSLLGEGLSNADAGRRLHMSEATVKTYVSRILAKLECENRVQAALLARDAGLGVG
Experiment: EMSA
Settings: EMSA with 0.5-3.0 ug His-CepR and 1.0 ug poly(dI-dC); buffer, salt, pH and temperature not given (as in Fu et al. 2019; Zhang et al. 2015)

Q: Which binding does the source give for “ATGGTCGTCCGATCGCCGCACGATCACTGATCAAGCCCTGCCCCACCCCGGCGCAAAAATTATCCGCCGGGTCATCACGCGTCATCACCACGTAATTCGGGACGGGAATACCCTGCCGCATTCCCGCCGGGGCGGCCCGGTGGGGCGGCTCCCCTCCCGCAGGCGCGGCGGTGCCCGTCGCACACTCAAGGAAGAGGGCAATGAACGA (double strand) [cefD-cmcI intergenic P1]” here?
A: no binding

Reference: article PMC6661058
